Source: US20090137002A1 (published 2009)

Experiments:
[1] = target: T1, recombinant human EphB4-Fc fusion protein (human, UniProt P54760 16-539); experiment: competition ELISA, Fab against EphrinB2-Fc on immobilized human EphB4
T1 construct: extracellular domain; also called hEphB4; hu EphB4-Fc
T1 sequence (looked up): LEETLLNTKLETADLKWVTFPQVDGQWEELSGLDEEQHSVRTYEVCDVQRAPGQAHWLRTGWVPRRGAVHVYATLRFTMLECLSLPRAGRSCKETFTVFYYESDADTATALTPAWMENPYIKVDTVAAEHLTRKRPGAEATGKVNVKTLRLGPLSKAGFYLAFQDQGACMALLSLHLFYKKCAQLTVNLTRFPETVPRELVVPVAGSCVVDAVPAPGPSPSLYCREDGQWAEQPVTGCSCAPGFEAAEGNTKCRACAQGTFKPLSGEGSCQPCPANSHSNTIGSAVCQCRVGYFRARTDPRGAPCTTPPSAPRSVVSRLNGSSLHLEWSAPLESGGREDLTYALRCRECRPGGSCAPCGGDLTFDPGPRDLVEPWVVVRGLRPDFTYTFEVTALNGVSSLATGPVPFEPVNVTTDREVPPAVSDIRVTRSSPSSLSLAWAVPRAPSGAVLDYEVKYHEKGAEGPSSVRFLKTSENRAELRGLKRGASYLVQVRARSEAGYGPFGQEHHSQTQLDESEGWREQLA
Experimental: IC₅₀ values were determined using recombinant antigen (murine and human EphB4) in an ELISA and on transfected cells in a FACS analysis (human EphB4 receptor).
Binding of (a fixed concentration of) the ligand EphrinB2-Fc to immobilized EphB4 receptor on an ELISA plate or on transfected cells is titrated with anti-EphB4 Fab. The IC₅₀ is determined as the amount of Fab at which the binding of EphrinB2 is inhibited by 50%.

[2] = target: T1, recombinant human EphB4-Fc fusion …; experiment: ELISA
recombinant mouse EphB6 = target: T2, recombinant mouse EphB6 (mouse, UniProt O08644 33-591, limits assumed); experiment: ELISA on coated receptor
T2 construct: also called mEphB6
T2 sequence (looked up): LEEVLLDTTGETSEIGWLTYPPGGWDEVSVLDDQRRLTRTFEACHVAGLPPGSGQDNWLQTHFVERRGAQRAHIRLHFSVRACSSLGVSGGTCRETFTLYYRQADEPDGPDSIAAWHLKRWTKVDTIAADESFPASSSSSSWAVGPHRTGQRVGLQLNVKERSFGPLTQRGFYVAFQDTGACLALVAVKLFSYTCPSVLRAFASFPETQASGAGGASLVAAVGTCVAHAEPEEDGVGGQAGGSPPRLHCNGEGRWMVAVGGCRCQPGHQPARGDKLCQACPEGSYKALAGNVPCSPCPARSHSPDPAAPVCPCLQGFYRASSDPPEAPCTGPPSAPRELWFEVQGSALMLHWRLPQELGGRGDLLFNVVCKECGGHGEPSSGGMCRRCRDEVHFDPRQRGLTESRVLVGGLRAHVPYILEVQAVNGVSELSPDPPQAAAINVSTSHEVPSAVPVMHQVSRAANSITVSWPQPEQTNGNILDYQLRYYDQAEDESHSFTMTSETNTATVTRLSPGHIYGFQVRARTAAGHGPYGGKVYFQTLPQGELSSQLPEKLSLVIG
Experimental: (§1) A 96-well plate was coated with recombinant mEphB1, -2, -3, -4, -6, mEphA4 and hEphB4 in PBS o/n at 4° C. (5 μg/mL; 100 μL/well). The next day, the antigen was discarded and the plate blocked with 3% BSA/PBS (300 μl/well) for 2 hrs at room temperature (RT). Blocking solution was discarded and anti-EphB4 Fabs were added to the wells at a concentration of 20 μg/mL in 1% BSA/PBS and incubated for 1 hr at RT. Fabs were discarded and the plate was washed 3× with PBS. Anti-human F(ab′)₂—HRP was added at a concentration recommended by the manufacturer in 1% BSA/PBS and incubated for 1 hr at RT. The plate was washed 3× with PBS and 100 μL/well chemifluorescent substrate was added. After development, fluorescence was measured in a fluorescence reader.

[3] = target: T3, recombinant mouse EphB3-Fc fusion protein (mouse, UniProt P54754 30-537, limits assumed); experiment: ELISA on coated receptor
T3 construct: also called mEphB3; not shown: Fc part, not described
T3 sequence (looked up): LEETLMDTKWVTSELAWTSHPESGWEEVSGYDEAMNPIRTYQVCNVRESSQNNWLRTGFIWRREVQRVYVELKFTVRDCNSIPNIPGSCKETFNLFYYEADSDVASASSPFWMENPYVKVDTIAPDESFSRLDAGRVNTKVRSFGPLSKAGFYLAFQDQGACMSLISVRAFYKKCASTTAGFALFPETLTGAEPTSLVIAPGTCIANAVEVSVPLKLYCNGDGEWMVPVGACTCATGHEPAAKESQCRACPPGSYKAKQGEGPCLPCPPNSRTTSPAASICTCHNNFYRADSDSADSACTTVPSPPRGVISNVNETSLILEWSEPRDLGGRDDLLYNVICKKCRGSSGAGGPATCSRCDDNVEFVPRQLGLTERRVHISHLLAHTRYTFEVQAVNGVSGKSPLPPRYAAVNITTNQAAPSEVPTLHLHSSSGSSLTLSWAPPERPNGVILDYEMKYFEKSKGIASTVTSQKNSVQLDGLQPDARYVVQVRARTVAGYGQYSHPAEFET
Experimental: as §1

Binder	IC50 [1] [µg/mL]	ELISA signal above background [2] [fold]	binding result (recombinant mouse EphB6)	binding result [3]
MOR03640 Fab (Fab, V domains shown, Monomeric HuCAL Fab, purified, MH-tagged) VH: QVQLVESGGGLVQPGGSLRLSCAASGFTFNNSWMSWVRQAPGKGLEWVSNITSSSSMTHYADSVKGRFTISRDNSKNTLYLQMNSLRAEDTAVYYCARKGMSFYNNKYAKSMFDLWGQGTLVTVSS VL: DIELTQPPSVSVAPGQTARISCSGDNLGKKYVHWYQQKPGQAPVLVIYYDSKRPSGIPERFSGSNSGNTATLTISGTQAEDEADYYCSAWTTTMMHIVFGGGTKLTVLG	33	10	no binding (tested: 20 µg/mL)	no binding (tested: 20 µg/mL)
MOR03641 Fab (Fab, V domains shown, Monomeric HuCAL Fab (VH1A, kappa1), purified, MH-tagged; also called 3541 [sic]) VH: QVQLVQSGAEVKKPGSSVKVSCKASGGTFSTYAISWVRQAPGQGLEWMGRIIPIFGTANYAQKFQGRVTITADESTSTAYMELSSLRSEDTAVYYCARSSYTILTTYYNYNAMDNWGQGTLVTVSS VL: DIQMTQSPSSLSASVGDRVTITCRASQNINNFLNWYQQKPGKAPKLLIYGSSILQSGVPSRFSGSGSGTDFTLTISSLQPEDFAVYYCHQVSDTSDTFGQGTKVEIKR	5	10	no binding (tested: 20 µg/mL)	no binding (tested: 20 µg/mL)
MOR03639 Fab (Fab, V domains shown, Monomeric HuCAL Fab (VH3, lambda3), purified, MH-tagged) VH: QVQLVESGGGLVQPGGSLRLSCAASGFTFSNYYLHWVRQAPGKGLEWVSGISYSGSSTYYADSVKGRFTISRDNSKNTLYLQMNSLRAEDTAVYYCARFYQRRQIPHGYDVWGQGTLVTVSS VL: DIELTQPPSVSVAPGQTARISCSGDNIGDYYVHWYQQKPGQAPVLVIYRDSNRPSGIPERFSGSNSGNTATLTISGTQAEDEADYYCGSYDMPFGGTVFGGGTKLTVLG	65	10	no binding (tested: 20 µg/mL)	no binding (tested: 20 µg/mL)
